The numbers were not newly measured in article PMC7248566, which cites them from elsewhere.

This data set concerns the target Fibrinogen beta (Fgβ) (Homo sapiens) (UniProt P02675).

With SdrG (from UniProt Q9KI13), the Kd was 350 nM.

By Kd is commonly meant the constant that tells how readily two partners part at equilibrium.
